# Data from patent publication US20150218257A1 (published 2015).
# B1: 1443_C16 (PG16) human monoclonal antibody (antibody, V domains shown)
# VH: QEQLVESGGGVVQPGGSLRLSCLASGFTFHKYGMHWVRQAPGKGLEWVALISDDGMRKYHSDSMWGRVTISRDNSKNTLYLQFSSLKVEDTAMFFCAREAGGPIWHDDVKYYDFNDGYYNYHYMDVWGKGTTVTVSS
# VL: QSALTQPASVSGSPGQTITISCNGTSSDVGGFDSVSWYQQSPGKAPKVMVFDVSHRPSGISNRFSGSKSGNTASLTISGLHIEDEGDYFCSSLTDRSHRIFGGGTKVTVLG
# B2: 1496_C09 (PG9) human monoclonal antibody (antibody, V domains shown)
# VH: QRLVESGGGVVQPGSSLRLSCAASGFDFSRQGMHWVRQAPGQGLEWVAFIKYDGSEKYHADSVWGRLSISRDNSKDTLYLQMNSLRVEDTATYFCVREAGGPDYRNGYNYYDFYDGYYNYHYMDVWGKGTTVTVSS
# VL: QSALTQPASVSGSPGQSITISCNGTSNDVGGYESVSWYQQHPGKAPKVVIYDVSKRPSGVSNRFSGSKSGNTASLTISGLQAEDEGDYYCKSLTSTRRRVFGTGTKLTVLG
# Key:
# [1] = biological target: T1, HIV-1 YU2 gp160 expressed on the surface of transfected 293/293T cells (HIV-1 strain YU2, UniProt P35961 32-843); test: binding to YU2 gp160 on the cell surface (FIG. 7)
# T1 construct: whole, on cells
# [2] = biological target: HIV-1 JR-FL(E168K) Env on pseudovirus (HIV-1 strain JR-FL); test: cell-based or functional assay
# [3] = biological target: HIV-1 92RW020 Env on pseudovirus (HIV-1 strain 92RW020); test: cell-based or functional assay
# [4] = biological target: HIV-1 ADA Env (gp160), on transfected 293 cells or on ADA pseudovirus (HIV-1 strain ADA); test: cell-based or functional assay
Binder,binding result [1],"IC50 (ug/ml), pseudovirus neutralisation, TZM-bl assay [2] [µg/mL]","IC50 (ug/ml), pseudovirus neutralisation, TZM-bl assay [3] [µg/mL]","IC50 (ug/ml), pseudovirus neutralisation, TZM-bl assay [4] [µg/mL]"
B1,binds,0.006,0.09,0.004
B2,–,–,0.1,0.2
